Publication PMC5175356
Like-named read-outs stand apart in the source and are kept apart here.

Key:
AtPOT1a OB1 [1] = target: T1, AtPOT1a OB1 (Arabidopsis thaliana, UniProt Q56Y52 1-158); experiment: competition
T1 sequence: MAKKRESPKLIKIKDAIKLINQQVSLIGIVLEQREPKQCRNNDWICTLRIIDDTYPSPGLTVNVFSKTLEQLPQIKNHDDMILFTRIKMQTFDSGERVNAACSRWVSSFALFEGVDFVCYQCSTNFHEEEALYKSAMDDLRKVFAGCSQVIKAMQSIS

AtPOT1a OB1 [2] = target: T1, AtPOT1a OB1; experiment: EMSA
AtPOT1a OB1 [3] = target: T1, AtPOT1a OB1; experiment: EMSA; remark: listed apart in the source
AtPOT1a OB1 [4] = target: T1, AtPOT1a OB1; experiment: EMSA; remark: listed apart in the source
AtPOT1a OB1 F65A = target: T2, AtPOT1a OB1 F65A (Arabidopsis thaliana, UniProt Q56Y52 1-158, F65A); experiment: EMSA
T2 sequence: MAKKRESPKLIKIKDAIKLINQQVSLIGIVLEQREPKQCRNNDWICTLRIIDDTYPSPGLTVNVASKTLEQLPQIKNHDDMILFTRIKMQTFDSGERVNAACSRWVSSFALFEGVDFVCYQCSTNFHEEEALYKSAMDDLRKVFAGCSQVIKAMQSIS

AtPOT1b OB1 V63F = target: T3, AtPOT1b OB1 V63F (Arabidopsis thaliana, UniProt Q6NKX5 1-159, V63F); experiment: EMSA
T3 sequence: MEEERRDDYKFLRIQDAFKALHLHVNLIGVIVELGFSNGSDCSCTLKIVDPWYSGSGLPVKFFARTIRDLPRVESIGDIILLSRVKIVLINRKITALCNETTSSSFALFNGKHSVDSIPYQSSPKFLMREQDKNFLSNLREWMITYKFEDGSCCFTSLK

AtPOT1b OB1 = target: T4, AtPOT1b OB1 (Arabidopsis thaliana, UniProt Q6NKX5 1-159); experiment: EMSA
T4 sequence: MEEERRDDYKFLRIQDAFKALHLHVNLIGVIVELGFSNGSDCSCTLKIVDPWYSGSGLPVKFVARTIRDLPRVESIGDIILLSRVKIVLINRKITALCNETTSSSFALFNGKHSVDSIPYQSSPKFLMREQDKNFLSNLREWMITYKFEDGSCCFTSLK

AtPOT1a OB1 [5] = target: T1, AtPOT1a OB1; experiment: EMSA; remark: listed apart in the source

Binder: TTAATTAACCCGGGGATCCGGCTTGATCAACGAATGATCC (ssDNA) [NS DNA]
- binding signal (AtPOT1a OB1 [1]): 10 % reduction of binding

Binder: UUUAGGGUUUAGGGUUUAGGGUUUAGGGUUUAGGG (ssRNA) [(UUUAGGG)5]
- binding signal (AtPOT1a OB1 [1]): 10 % reduction of binding

Binder: TTTAGGGTTTAGGG (ssDNA) [(TTTAGGG)2]
- Kd (AtPOT1a OB1 [2]): ~1000 nM

Binder: TTTAGGG (ssDNA)
- binding result (AtPOT1a OB1 [3]): no binding

Binder: TAGGGTTTAGG (ssDNA) [minimal binding site 11-mer]
- binding result (AtPOT1a OB1 [4]): binds

Binder: TTTAGGGTTTAGGGTTTAGGGTTTAGGGTTTAGGG (ssDNA) [(TTTAGGG)5]
- Kd (AtPOT1a OB1 [2]): 230 ± 30 nM
- binding result (AtPOT1a OB1 F65A): no binding
- binding result (AtPOT1b OB1 V63F): binds
- binding result (AtPOT1b OB1): no binding

Binder: TTAGGGTTTAGG (ssDNA) [12-mer telomere]
- binding result (AtPOT1a OB1 [5]): binds
